Results taken from the supplement of paper PMC9170038.

Tested on: MS2 coat protein
Test: apparent KD of MS2 coat protein; designed switch direction (-1 OFF switch, 1 ON switch): -1; higher = weaker reporter binding
How it was run: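 Three titration conditions were used: no input, 200 uM small-molecule ligand, and an oligonucleotide input. In each, SNAP-549-labelled MS2 coat protein was raised from 0.7 or 1.5 nM, doubling, to 3 µM over designed RNA switches transcribed on Illumina chips by stalled E. coli RNA polymerase. Curve fits of normalised cluster fluorescence gave values whose per-design median over clusters is the apparent KD.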

[1] = input ligand: microRNA oligo, concentration not stated
[2] = Eterna round: R95, input ligand: FMN 200 uM
[3] = Eterna round: R95, input ligand: microRNA oligo, concentration not stated
[4] = Eterna round: R95, input ligand: none

Sequence: ACGUUGUCAGGAUAUCGUUAAUUUAGUUGUUUGUAUUAGUUCGAGAAGGGACAUGAGGAUCACCCAUGUUUGAA [Ex4 #34] (Eterna round: R97, puzzle: Exclusion 4)
- apparent KD of MS2 coat protein (input ligand: FMN 200 uM): 36.2 nM
- apparent KD of MS2 coat protein (input ligand: none): 31.5 nM

Sequence: ACUAAGGUAGGAUAUACGUGCGUGAUCGUGCCUUAGCUGGCACAUGAGGAUCACCCAUGUAGAAGGGCCAGACA [Esraleon] (Eterna round: R97, puzzle: Exclusion 2)
- apparent KD of MS2 coat protein (input ligand: FMN 200 uM): 17.4 nM
- apparent KD of MS2 coat protein (input ligand: none): 19.8 nM

Sequence: ACUCAGUGAGGAUAUCGCCAGAGAACCGUAACGGUCUCUGAUGAGAAGGCACAUGAGGAUCACCCAUGUAAGCA [EX4 C.3] (Eterna round: R97, puzzle: Exclusion 4)
- apparent KD of MS2 coat protein (input ligand: FMN 200 uM): 278 nM
- apparent KD of MS2 coat protein (input ligand: none): 174 nM

Sequence: ACUCGACAUGAGGAUCACCCAUGUGAGGAUAUGGCCUGUAUGGCGUGAGCUGGCUCAGUCAGAAGGCGCGUGGG [salish99_ex1_r4_047] (Eterna round: R97, puzzle: Exclusion 1)
- apparent KD of MS2 coat protein (input ligand: FMN 200 uM): 151 nM
- apparent KD of MS2 coat protein (input ligand: none): 123 nM

Sequence: ACUCGACAUGAGGAUCACCCAUGUGAGGAUAUGGCCUGUAUGGCGUGAGCUGGCUCUGUCAGAAGGCGCGUGGG [salish99_ex1_r4_046] (Eterna round: R97, puzzle: Exclusion 1)
- apparent KD of MS2 coat protein (input ligand: FMN 200 uM): 55.5 nM
- apparent KD of MS2 coat protein (input ligand: none): 59 nM

Sequence: ACUCUUCCUGUUAGGAUAUGCAUCGGGCUUCCGCAGCAGAAGGAACAUGAGGAUCACCCAUGUCAAAUAAAAUC (Eterna round: R97, puzzle: Brourd's mod of Exclusion 4)
- apparent KD of MS2 coat protein (input ligand: FMN 200 uM): 33.1 nM
- apparent KD of MS2 coat protein (input ligand: none): 17.4 nM

Sequence: ACUCUUCUAGUUAGGAUAUGCAUCGGGCUUCCGCAGCAGAAGGAACAUGAGGAUCACCCAUGUCAAAUAAAAUC (Eterna round: R97, puzzle: Brourd's mod of Exclusion 4)
- apparent KD of MS2 coat protein (input ligand: FMN 200 uM): 34.8 nM
- apparent KD of MS2 coat protein (input ligand: none): 20.6 nM

Sequence: ACUGGAGCAGGAUAUAUAUGACGUGCUUCGGCACGAAGGUCACAUGAGGAUCACCCAUGUAGAAGGGCUCCAGU [E2/9-D1] (Eterna round: R97, puzzle: Exclusion 2)
- apparent KD of MS2 coat protein (input ligand: FMN 200 uM): 225 nM
- apparent KD of MS2 coat protein (input ligand: none): 46.7 nM

Sequence: ACUGUUUGAUACCUCUAAUACAUGAGGAUCACCCAUGUUAUCGAGGAUAUGCAUUAGAGUGGUUAGCAGAAGGCGAAGUAAUUG [JR_ExcNG3_Sub031] (Eterna round: R96, puzzle: Exclusion NG 3)
- apparent KD of MS2 coat protein (input ligand: FMN 200 uM): 17 nM
- apparent KD of MS2 coat protein [1]: 14.2 nM
- apparent KD of MS2 coat protein (input ligand: none): 21.6 nM

Sequence: ACUUAUUGAGGAUAUACAGAUUAUUACAUGAGGAUCACCCAUGUUCUUCAAUGUAUAUAUGUAGAAGGCAGAAGAU [Mat - Exclusion 5 - JL Mod - D15] (Eterna round: R97, puzzle: Exclusion 5)
- apparent KD of MS2 coat protein (input ligand: FMN 200 uM): 177 nM
- apparent KD of MS2 coat protein (input ligand: none): 57.5 nM

Sequence: ACUUAUUGAGGAUAUACAUAAAUUUACAUGAGGAUCACCCAUGUUCUUCUAUGUAUAUAUGUAGAAGGCAGAAGAU [Mat - Exclusion 5 - JL Mod - D32] (Eterna round: R97, puzzle: Exclusion 5)
- apparent KD of MS2 coat protein (input ligand: FMN 200 uM): 29.2 nM
- apparent KD of MS2 coat protein (input ligand: none): 19.3 nM

Sequence: ACUUCGUCAGGAUAUCGAGUGACCAAGUACACUGGCUUGGCUGAGAAGGGACAUGAGGAUCACCCAUGUGGGAG [Eternabot (L1) Solution 52] (Eterna round: R97, puzzle: Exclusion 4)
- apparent KD of MS2 coat protein (input ligand: FMN 200 uM): 356 nM
- apparent KD of MS2 coat protein (input ligand: none): 187 nM

Sequence: AGAAACUCAAGAGGAUAUCACAUGAGGAUCACCCAUGUAUAGCGCGCUAUGCUAGUCCUCGUAUUUGAGAAGGUUUGAUAAAUG [Mat - Exclusion NG 2 - Mod of JL - D78] (Eterna round: R96, puzzle: Exclusion NG 2)
- apparent KD of MS2 coat protein (input ligand: FMN 200 uM): 16.2 nM
- apparent KD of MS2 coat protein [1]: 14.2 nM
- apparent KD of MS2 coat protein (input ligand: none): 16.9 nM

Sequence: AGAAGAAAAGAGAUUUGCUCGUCUUAUAAGUAUGAAGUAACAUGAGGAUCACCCAUGUAAGUCUAGUGAGAAGGAAG [JR_SV3TOV2_Sub001] (puzzle: Sensor v3, turn-off variant 2)
- apparent KD of MS2 coat protein [2]: 22.9 nM
- apparent KD of MS2 coat protein [3]: 50 nM
- apparent KD of MS2 coat protein [4]: 24.4 nM

Sequence: AGAAGUGCCGAGGAUAUCCAGGCAAUCUCGUUCGGAGAAGGCGGCACUUGAGGAUCACCCAAGUGCUCCUAAGA [Islariat] (Eterna round: R97, puzzle: Exclusion 6)
- apparent KD of MS2 coat protein (input ligand: FMN 200 uM): 52.1 nM
- apparent KD of MS2 coat protein (input ligand: none): 14.1 nM

Sequence: AGACAGUCAGGAUAUACAUGAGGAUCACCCAUGUUAAGAAGAGAAAGGGCAGGAAGAGGUAGAAGGGACAAGAA [JR_Exclu3_Sub033] (puzzle: Exclusion 3)
- apparent KD of MS2 coat protein [2]: 21.1 nM
- apparent KD of MS2 coat protein [3]: 23.6 nM
- apparent KD of MS2 coat protein [4]: 29.5 nM

Sequence: AGAGAAAAUCUAGGAUAUGUGUAUGCCGCGUGCGCAGAAGGAGACAUGAGGAUCACCCAUGUAAAGAGACAGAAGACGACCAAA [Matt's Exclusion] (Eterna round: R96, puzzle: Exclusion NG 1)
- apparent KD of MS2 coat protein (input ligand: FMN 200 uM): 55.7 nM
- apparent KD of MS2 coat protein [1]: 38.7 nM
- apparent KD of MS2 coat protein (input ligand: none): 67.5 nM

Sequence: AGAGUACUGCGAGGAUAUACAUGAGGAUCACCCAUGUGGUGGUGUGAGGCAAAGCCUCACACCAUGUAGAAGGCGCAGUACUCA [Mat - Exclusion NG 2 - Mod of JL - D20] (Eterna round: R96, puzzle: Exclusion NG 2)
- apparent KD of MS2 coat protein (input ligand: FMN 200 uM): 159 nM
- apparent KD of MS2 coat protein [1]: 26.6 nM
- apparent KD of MS2 coat protein (input ligand: none): 42.3 nM

Sequence: AGAGUGCUGCGAGGAUAUACAUGAGGAUCACCCAUGUAAACCUGUGAGGCAAAGCCUCACAGGAUGUAGAAGGCGCAGUACUCA [Mat - Exclusion NG 2 - Mod of JL - D40] (Eterna round: R96, puzzle: Exclusion NG 2)
- apparent KD of MS2 coat protein (input ligand: FMN 200 uM): 20 nM
- apparent KD of MS2 coat protein [1]: 8.82 nM
- apparent KD of MS2 coat protein (input ligand: none): 19.5 nM

Sequence: AGAGUGCUGCGAGGAUAUACAUGAGGAUCACCCAUGUAAACGUGUGAGGCAAAGCCUCACACGAUGUAGAAGGCGCAGUACUCA [Mat - Exclusion NG 2 - Mod of JL - D37] (Eterna round: R96, puzzle: Exclusion NG 2)
- apparent KD of MS2 coat protein (input ligand: FMN 200 uM): 19.6 nM
- apparent KD of MS2 coat protein [1]: 11.7 nM
- apparent KD of MS2 coat protein (input ligand: none): 21.5 nM

Sequence: AGAGUGCUGCGAGGAUAUACAUGAGGAUCACCCAUGUGGUCCUGUGAGGGAAAACCUCACAGGAUGUAGAAGGCGCAGUACUCA [Mat - Exclusion NG 2 - Mod of JL - D47] (Eterna round: R96, puzzle: Exclusion NG 2)
- apparent KD of MS2 coat protein (input ligand: FMN 200 uM): 53.2 nM
- apparent KD of MS2 coat protein [1]: 10.9 nM
- apparent KD of MS2 coat protein (input ligand: none): 16.3 nM

Sequence: AGAUAGUCAGGAUAUUAGUAAUAAAAGGAUAAUAAUAUUACUGAGAAGGGACAUGAGGAUCACCCAUGUAAUAU [JR_Ex4_Sub061] (Eterna round: R97, puzzle: Exclusion 4)
- apparent KD of MS2 coat protein (input ligand: FMN 200 uM): 44.5 nM
- apparent KD of MS2 coat protein (input ligand: none): 27.5 nM

Sequence: AGAUAGUGCAGAGGAUAUCGUAAUAGAAAGAAUCGAGAAGGCUGACAUGAGGAUCACCCAUGUGAUGUCUUGAGACUACAUGGU [Prohibition 34 - Jieux - Exclusion NG 1] (Eterna round: R96, puzzle: Exclusion NG 1)
- apparent KD of MS2 coat protein (input ligand: FMN 200 uM): 460 nM
- apparent KD of MS2 coat protein [1]: 62.8 nM
- apparent KD of MS2 coat protein (input ligand: none): 83.1 nM

Sequence: AGAUAGUGCUGAGGAUAUCUUAAUAGAAAGAAUAGAGAAGGCGGACAUGAGGAUCACCCAUGUGAGGUCUUGAGACUACAUGGU [Prohibition 36 - Jieux - Exclusion NG 1] (Eterna round: R96, puzzle: Exclusion NG 1)
- apparent KD of MS2 coat protein (input ligand: FMN 200 uM): 366 nM
- apparent KD of MS2 coat protein [1]: 71.6 nM
- apparent KD of MS2 coat protein (input ligand: none): 135 nM

Sequence: AGAUCACAUGAGGAUCACCCAUGUCAGGAUAUCGUCACUGGAGCUGCGGCUCCAGUGACGAGAAGGGACAUAAU [E1/2-A3] (Eterna round: R97, puzzle: Exclusion 1)
- apparent KD of MS2 coat protein (input ligand: FMN 200 uM): 252 nM
- apparent KD of MS2 coat protein (input ligand: none): 326 nM

Sequence: AGAUCACAUGAGGAUCACCCAUGUGAGGAUAUCGACUGAACAGCUUCGGCUGUUCAGUCGAGAAGGCACAAUUA [EX1 #41] (Eterna round: R97, puzzle: Exclusion 1)
- apparent KD of MS2 coat protein (input ligand: FMN 200 uM): 45.1 nM
- apparent KD of MS2 coat protein (input ligand: none): 23.8 nM

Sequence: AGAUGGAAGCAGGAUAUGCUUGUAUAAUUGAAAGCAGAAGGGCUAACAUGAGGAUCACCCAUGUAAGAGGUGUA [JR_E6_Sub059] (puzzle: Exclusion 6)
- apparent KD of MS2 coat protein [2]: 302 nM
- apparent KD of MS2 coat protein [3]: 282 nM
- apparent KD of MS2 coat protein [4]: 352 nM

Sequence: AGAUGGCGAGGAUAUACAUGAGGAUCACCCAUGUGAGAGAAGAAAGUGAGGAAGAAAAGUAGAAGGCGCUGUCA [Mat - Exclusion 3 - Mod of Salish D11] (puzzle: Exclusion 3)
- apparent KD of MS2 coat protein [2]: 184 nM
- apparent KD of MS2 coat protein [3]: 54.4 nM
- apparent KD of MS2 coat protein [4]: 60 nM

Sequence: AGAUGUAGAUACCGAUCCUACAUGAGGAUCACCCAUGUAGCUAGACGUGCUCGCGUGGCUCGUCAGACUACCAGUAG [salish99_TOv1_r3_091] (puzzle: Sensor v3, turn-off variant 1)
- apparent KD of MS2 coat protein [2]: 243 nM
- apparent KD of MS2 coat protein [3]: 211 nM
- apparent KD of MS2 coat protein [4]: 281 nM

Sequence: AGAUGUAGAUACCGAUCCUACAUGAGGAUCACCCAUGUAGCUAGACGUGCUCGCGUUGCUCGUCAGACUACCAGUAG [salish99_TOv1_r3_088] (puzzle: Sensor v3, turn-off variant 1)
- apparent KD of MS2 coat protein [2]: 279 nM
- apparent KD of MS2 coat protein [3]: 286 nM
- apparent KD of MS2 coat protein [4]: 382 nM

Sequence: AGAUGUUAUAAGGAUAUGCAGGCCAUCGCAUCAGCAGAAGGUGUAACAUGAGGAUCACCCAUGUAAACGAACUG [Eternabot (L1) Solution 44] (Eterna round: R97, puzzle: Exclusion 6)
- apparent KD of MS2 coat protein (input ligand: FMN 200 uM): 28.9 nM
- apparent KD of MS2 coat protein (input ligand: none): 22.8 nM

Sequence: AGCAUGCUAGGAUAUACGGGACAUUAGGGUUUGUCGUGUGGACAUGAGGAUCACCCAUGUAGAAGGAGCGUGCA [Mat - Exclusion 2 - Mod of Hyphema - D92] (puzzle: Exclusion 2)
- apparent KD of MS2 coat protein [3]: 46.5 nM

Sequence: AGCAUGGUAGGAUAUACGGAACAUUAGGGUUUGUUAUGUGGACAUGAGGAUCACCCAUGUAGAAGGGCCGUGCA [Mat - Exclusion 2 - Mod of JL - D80] (puzzle: Exclusion 2)
- apparent KD of MS2 coat protein [3]: 32.3 nM
